Consider two substances from patent US20230218739A1.

Several values for one entry are separate records, joined by “and”; a condition that tells them apart may be missing. Equal entries are not always repeated. Where two headings read alike, the source gives them in different places. Some results are limits rather than exact numbers.

In test [1] the target is recombinant HA produced from insect cells. The experiment in a line: ForteBio Octet molecular interaction analysis.
Test [2] deals with Influenza HA-Trimer (exemplary fusion protein comprising HA (Influenza A virus A/California/07/2009-pdm (H1N1))). The experiment in a line: biolayer interferometry (Octet), […]. On the technique in general: In BLI a coated tip is dipped into the sample, and binding shifts an interference pattern.
For test [3], the target named is Rabies G-Trimer (CTN-1 Strain) (ectodomain of rabies CTN-1 strain G protein fused in frame to Trimer-Tag) (Rabies virus CTN-1 strain).
The target is the same in test [4]. This is another data set of the same source.
Test [5] shares this target. The source holds these as a separate data set.

The Kd is a measure of binding affinity in units of concentration. With “CR6261 (broadly neutralizing anti-HA antibody, ACRO Biosystems)”, the Kd is 3.8 nM in test [1] and less than 0.001 nM in test [2].
HDCV: the CTN-1 Specific IgG titer (End point) in test [3] is 57 and 33. Besides, the p75 Competitive titer IC50 GMT in test [4] is 87; in test [5], 30 and 25.
